Results reported in patent US20250288617A1, “Gene Therapy” (priority 2022, published 2025).

B1: Ad5-E4orf6/7: adenovirus serotype 5 protein E4orf6/7 (SEQ ID No. 27), delivered as in vitro transcribed mRNA (nucleic acid)
DNA: ATGACCACCAGCGGCGTGCCCTTCGGCATGACACTCAGACCTACCAGAAGCCGGCTGAGCAGAAGAACCCCTTACAGCAGAGACAGGCTGCCTCCATTCGAGACAGAGACACGGGCCACCATCCTGGAAGATCACCCTCTGCTGCCCGAGTGTAACACCCTGACCATGCACAACGCCTGGACAAGCCCATCTCCTCCAGTGAAACAGCCCCAAGTGGGACAGCAGCCTGTTGCTCAGCAGCTGGACAGCGACATGAACCTGTCTGAACTGCCCGGCGAGTTCATCAACATCACCGACGAGAGACTGGCCCGGCAAGAGACAGTGTGGAACATCACCCCTAAGAACATGAGCGTGACCCACGACATGATGCTGTTCAAGGCCAGCAGAGGCGAGCGGACAGTGTACAGCGTTTGTTGGGAAGGCGGCGGACGGCTGAATACCAGAGTGCTGTAA
modifications: in vitro transcribed mRNA
B2: GSE56: p53 dominant negative peptide (SEQ ID NO: 3), delivered as in vitro transcribed mRNA (nucleic acid)
DNA: ATGGATGGATGGTGTCCTGGGAGAGACCGTCGGACAGAGGAAGAAAATTTCCGCAAAAAAGAAGAGCATTGCCCGGAGCTGCCCCCAGGGAGTGCAAAGAGAGCACTGCCCACCAGCACAAGCTCCTCTCCCCAGCAAAAGAAAAAACCACTCGATGGAGAATATTTCACCCTTAAGATCCGTGGGCGTGAGCGCTTCGAGATGTTCCGAGAGCTGAATGAGGCCTTGGAATTAAAGGATGCCCGTGCTGCCGAGGAGTCAGGAGACAGCAGGGCTCACTCCAGCTACCCGAAGATAGTTAGTTAG
modifications: in vitro transcribed mRNA; protein SEQ ID NO: 3

What was measured:
[1] = test system: vector DNA (ITR+cargo, ITR, HIV probes) in human graft; experiment: ddPCR of viral vector copies per human genome in long-term human xenografts; type: in vivo, NSG mice; conditions: AAVS1-edited HSPCs, AAV template
Excerpt: Since short-read sequencing of the edited locus and genome-wide IS identification may underestimate the overall frequency of trapping events, we performed ddPCR analyses to get an independent genome-wide quantification of AAV genome trapping events. […] On the contrary, we detected only background noise signal when probing for the AAV plasmid contaminants in the human long-term graft (FIG. 6i). […] Whether integration of AAV DNA occurs mostly as individual elements in a sizable fraction of cells treated for editing or as concatemers in only a small fraction of them cannot be determined by this analysis. Since ITR fragments are not detected by the ITR+cargo assay we performed ddPCR also with the ITR probe on PB samples of mice from FIG. 5g and found equal or higher signal in most mice (FIG. 51).
gDNA was isolated with QIAamp DNA Micro Kit from DNAse-treated in vitro culture cells pellet and in vivo samples, or with QuickExtract (Epicentre) from single colonies according to the manufacturer's instructions. For ddPCR analyses, 5-50 ng of gDNA for in vitro/vivo samples and 2 μl of gDNA for single colonies were analyzed using the QX200 Droplet Digital PCR System according to the manufacturer's instructions. […]

[2] = test system: AAVS1 locus; type: in vivo, human xenograft; conditions: in presence and absence of Ad5-E4orf6/7; 65 samples of published experiments
Procedure: PCR amplicons for individual samples were generated by nested PCR and starting from >50-100 ng of purified gDNA. The first PCR step was performed with GoTaq G2 DNA Polymerase (Promega) according to manufacturer instruction using the following amplification protocol: 95° C.×5′min, (95° C.×0.5 min, 60° C.×0.5 min, 72° C.×[…])×20 cycles, 72° C.×5 min. The second PCR step was performed with GoTaq G2 DNA Polymerase (Promega) according to manufacturer instruction using 5 μl of the first-step PCR product and the following amplification protocol: 95° C.×5 min, (95° C.×0.5 min, 60° C.×0.5 min, 72° C.×0.3 min)×20 cycles, 72° C.×5 min. […] Amplicons concentration and quality was assessed by QuantiFluor ONE dsDNA system and 4200 Tapestation System (Agilent). […]
Sequencing data were analyzed with CRISPResso2, which enables detection and quantification of insertions, mutations, and deletions in reads from gene editing experiments. In details, for each sample, input NGS reads were trimmed using the Trimmomatic software (http://www.usadellab.org/cms/?page=trimmomatic) based on the phred33 score to get rid of low-quality positions (score <30) and to remove Illumina adapters, keeping only trimmed sequences longer than 100 bp (CRISPResso2 options:—trim_sequences—trimmomatic_command trimmomatic—trimmomatic_options_string ‘[…]: TruSeq3-PE-2.fa: 2:30:10 MINLEN: 100’). […]

Molecule	ITR+cargo copies in long-term xenograft in presence of editing enhancers [1]	frequency and number of unique NHEJ-edited alleles in the human graft [2]
B1	more copies	–
B2	more copies	higher
